Measurements taken from the supplement of paper PMC12764529.
± gives the half width of the 95% confidence interval.

Key:
[1] = folding stability dG unfold from trypsin proteolysis; higher = more stable
Summary of the method: (§1)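 Designed mini-proteins with no cysteine and under 80 residues were kept only if AlphaFold2 dimer inter-PAE was above 15. In a PA-tagged cDNA display construct, they were digested with trypsin and chymotrypsin and then sequenced. K50 was inferred by Bayesian fitting of counts, and unfolding free energy was derived per protease or combined against a sequence-predicted unfolded-state K50 and a shared folded-state K50.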

[2] = folding stability dG unfold from chymotrypsin proteolysis; higher = more stable
Summary of the method: as §1

[3] = folding stability dG unfold (combined trypsin and chymotrypsin); higher = more stable
Summary of the method: as §1

Sequence | folding stability dG unfold [1] [kcal/mol] | folding stability dG unfold [2] [kcal/mol] | folding stability dG unfold [3] [kcal/mol]
SEGSVRLEFTFTLPDGTRLTVEVTVHYDAATGEFHVSVSVRVEPLPDTSRPWEERPVRLPDGTWVSAADLSA [r9_898_TrMRF] | 2.54 ± 0.071 | 2.28 ± 0.1 | 2.5 ± 0.13
SEITIKLKVENLSEEELKKLAEELAKEGLFEITSIKVENGYVTITIKKKPKPPPKPEKKKVVFDKDGKPVSA [r9_830_TrROS_Hall] | 0.975 ± 0.071 | 2.58 ± 0.12 | 2.2 ± 0.14
SEITIYNKGKPPPEELLEALKKAPGFPPEDLRKNTKVEPNKDGPQITIPPEQAEQMSKRNPRIMEAIRELSA [r9_160_TrROS] | 1.64 ± 0.098 | 1.75 ± 0.37 | 1.44 ± 0.48
SEKLTEEEVEKLAEELAKELEEETGKKVTVEVEVEKVEVEKDGEKEEVEVVRIKITVDPETGEVTIEVEPSA [r9_9_TrROS_Hall] | 1.49 ± 0.11 | 1.43 ± 0.2 | 1.56 ± 0.45
SEKPPKVKIVSVEYNPETGTVTITVEVEPGQKVRIFVRNSDGSVQEIDLESKTITINLPPGAEIVRIEVLSA [r9_113_TrROS_Hall] | 3.9 ± 0.23 | 4.16 ± 0.12 | 4.09 ± 0.14
SEKVKKELNEAGYPVKDIKFVPEKGYAYITVEVYVPEVDKKVEKEIVIPFPDSATPEQLTEAARKALEADSA [r9_184_TrMRF] | 3.04 ± 0.11 | 3.04 ± 0.076 | 3.09 ± 0.092
SEMTAEELAARLAERLAEEHPGEEVTVEIEVEAEVVDEETGETRTVRVTVTLRFRDGKVEVVDVKVEELPSA [r9_361_TrROS_Hall] | 3.43 ± 0.092 | 4.49 ± 0.066 | 4.18 ± 0.086
SEPPPKIKIKEVEYNPDDGYLTIPVTHPNGPKMRVKFRPPDGKTQEIPPNSPTITIPLPPNMRLTEIEVDSA [r9_113_TrROS] | 3.51 ± 0.31 | 2.79 ± 0.29 | 3.22 ± 0.33
SETVEIEIELPDGTKVTITVDKDGKVHITIEVPEDNPELLEKGSIEELAKKLAEELGLSEKDVEVTVLPPSA [r9_401_TrROS_Hall] | 2.98 ± 0.29 | 2.45 ± 0.24 | 2.8 ± 0.27
SEVVDTFSPPVTGSGEPRDFEIRLIKDENGNPVSVTMFDPVTGVEYPPDVSLEDLGVPPPVVEAFEAARRSS [r1_354_JUSTAS] | -0.48 ± 0.08 | 0.0636 ± 0.062 | -0.0908 ± 0.069
SEVVFTLKDKPSPEELLKALAAVPGFSLETILKNTKVSPGKTGPKLTIKKEDFEKLEKENPEALEIIRSGSA [r9_160_TrMRF] | 1.2 ± 0.026 | 1.01 ± 0.11 | 1.09 ± 0.089
SFGMIEIENEAFLPDGFRFKVEVWVMVDPDNGNLMIMLDIEIEPIPPPPPPPEPKPVKDKNGDWKPANDMSA [r9_898_TrROS] | 1.82 ± 0.14 | 3.79 ± 0.14 | 3.12 ± 0.18
SFHVERDPEDNTIYIHFPPGMDPLELAKSLLKELREQQDDGPIKIHVHYGDWVFEIDIKKGKIEVRPPGESA [r9_224_TrROS] | 1.41 ± 0.1 | 1.19 ± 0.16 | 1.23 ± 0.18
SFIRKDPDGTYVIMGRMPPNMPIEEFLENLPGFKIKDVEYQPDPENGYWYFTLVITPRGKVKIDWVPMGDSA [r9_238_TrROS] | 2 ± 0.03 | 1.91 ± 0.11 | 2 ± 0.11
SFNISVSVEPDDDKYKVTIWIQVDPEEFPGQPPTPSVIEEIARELARDWGIKEVEIEPPPNGYYRHTFPLSA [r9_883_TrROS] | 1.33 ± 0.032 | 2.25 ± 0.057 | 1.88 ± 0.1
SFTPEQVKDIAKTIANRMYDNGYEVEVDVEVEPVNNMPYVEIEFEWRDPDGQPWKFEIIIHPDGDIEIYPSA [r9_1027_TrROS] | 1.28 ± 0.16 | 2.7 ± 0.065 | 2.43 ± 0.21
SFTVERNVYRIENPPKLVVNVIITAEDGTPVPPEVVEEAVRELEKAGFPVKKVSVTPLPDGSVLVTVEVDVS [r1_408_TrMRF] | 2.84 ± 0.1 | 2.13 ± 0.071 | 2.52 ± 0.083
SGATLFIGRFPGEGTLIAVAKLPNGKEIVISFGNYPEGIAGIAALARELDPRAEIKHIELVPPDSVPPEFSA [r9_137_TrMRF] | 1.37 ± 0.038 | 1.49 ± 0.11 | 1.45 ± 0.11

Sequence | folding stability dG unfold [1] [kcal/mol] | folding stability dG unfold [2] [kcal/mol] | folding stability dG unfold [3] [kcal/mol]
SGATVTVSKDGRTYTVTVSPNATVTVEVRDPTSTSTYTQTVPPGQPTTVSLPLPSDVSSSVTIASIDVGASA [r9_1152_JUSTAS] | 0.439 ± 0.025 | 0.656 ± 0.088 | 0.592 ± 0.072
SGFKVYIPDADLDAAVAVAKALVEKGYDTLLVDSPEVLKAIKEAIPDVKVEPVPVLPPVPPLPGEAEALFSA [r9_639_TrMRF] | 0.71 ± 0.021 | 0.573 ± 0.092 | 0.684 ± 0.076
SGFTFSTLIAPDESLSITVKEPNSSTTTSFDFTVDPATGAVSATATTTPPDGKTQTFSVTIPVSPGAAALSA [r9_770_JUSTAS] | 1.02 ± 0.08 | 0.924 ± 0.18 | 0.973 ± 0.11
SGKDTLILELVLEVDSEEQAQAIRDIFEALGYKVEVRVFPLPDGLIVFVRVEVPVPPPPPSLEDPELLAKSA [r9_863_TrMRF] | 1.92 ± 0.092 | 2.75 ± 0.028 | 2.57 ± 0.15
SGKKKIKIYVESIEVFEDGVVKIKVKAIFPDGSEEDVIAEIRVEPDEDGRPHLLVVIRIGDKDFLLVLDASA [r9_271_TrMRF] | 2.81 ± 0.11 | 3.15 ± 0.059 | 2.96 ± 0.17
SGLKPNEVKKFTFSFPVTDPVTGKEVTATVELYVSAGNPFVVVKLTVTPPDGKTETKTFVVPPGATLTIDSA [r9_88_TrMRF] | 1.73 ± 0.054 | 3.598 ± 0.028 | 3.2 ± 0.17
SGLPEELARKLGLSAMTPLPDGTLVMALPDGTRVVVRIETTEVRLSPLGEPAVEVEVEVERLPAPAPEAASA [r9_648_JUSTAS] | 1.5 ± 0.027 | 1.67 ± 0.018 | 1.6 ± 0.048
SGLTLTLPVAPDEELKLTLKLPNTDETVEVEAETVAETGDVFAVAVATPPNGDKKVVPAVIKVEPGEPDESA [r9_770_TrMRF] | 0.704 ± 0.038 | 0.332 ± 0.16 | 0.642 ± 0.12
SGLTNLRVEAELVPPGVLRVTFTEGGKPVYELTFTVVVPAPPVVEPVLLPNGVPALVVYDPATGKPVVYPSA [r9_343_TrMRF] | 2.17 ± 0.13 | 3.27 ± 0.11 | 2.86 ± 0.08
SGMDTVTPTTSTTQYFVEPNPEPVLSISTTTDTTTDPANPGVVTVTTTTTITDPRTGTTTTTPTTTTVPASA [r9_342_JUSTAS] | 0.142 ± 0.019 | -0.564 ± 0.14 | -0.146 ± 0.18
SGMERTPLTPTETVTLTIPPGSLTITPTASPGPLTVTVTVPGSGTPTVVELPVEAPDLDAALAAVVAALQSA [r9_982_JUSTAS] | 0.787 ± 0.04 | 1.39 ± 0.078 | 1.12 ± 0.056
SGMIKVSVEEKELKDGTKLYTITVEHPDPEVAKETAEKIVKEKFPKNYKVETKLTESGKVIAPVIVPKKKSA [r9_646_JUSTAS] | 0.379 ± 0.09 | 1.1 ± 0.15 | 0.9 ± 0.2
SGMKSVTTPVSLTINTSPEEAEEFIEKLAKERGIEDVTVVKVTTDPATGTLTVEAELHTTIPPLPPPSSVSA [r9_918_JUSTAS] | 1.07 ± 0.044 | 1.17 ± 0.061 | 1.1 ± 0.27
SGMPTVTLNVTIEFERERLSFDPKTGKPRLELVKVTKPVTITGFFTSPEEAAAAAEAVRKALEADPEALASA [r9_77_JUSTAS] | 1.7 ± 0.068 | 2.37 ± 0.034 | 2.07 ± 0.084
SGMTIKILEVDFNPLGEEDEKATITLKAEIGGEEVELKIEVYRRPDGSAIAKITLILPGSGEPFEITADISA [r9_241_TrMRF] | 2.61 ± 0.11 | 4.16 ± 0.13 | 3.91 ± 0.17
SGMTVTPVTHPNGQTLTLTFDPETGTVTVNRSPAISLEEVKAALEALIPSDRSVTVSTLPDGTAAVTLTASA [r9_933_JUSTAS] | 1.36 ± 0.04 | 1.06 ± 0.1 | 1.27 ± 0.059
SGPAEGFEAELVEEYTLPETERVFVYRVTHPDGTEYVLVVVRNPDGTWEPVFVYRPDDPDALREALELLGSA [r9_1069_TrMRF] | 3.11 ± 0.081 | 3.595 ± 0.022 | 3.47 ± 0.057
SGPIAELVKAHPGVPVEDLAKAIVDALKAQLPKDVPITVDAEVTPDGIKLNVTVEGDTEPFTFPFVVKPGSA [r9_805_TrMRF] | 0.879 ± 0.024 | 1.34 ± 0.038 | 1.2 ± 0.043
